# Test results taken from patent US20250092148A1 (Kyowa Kirin, published 2025).
# T1: human CD116 T187A (human, UniProt P15509 23-400)
# T1 construct: whole, on cells
# T1 sequence (looked up): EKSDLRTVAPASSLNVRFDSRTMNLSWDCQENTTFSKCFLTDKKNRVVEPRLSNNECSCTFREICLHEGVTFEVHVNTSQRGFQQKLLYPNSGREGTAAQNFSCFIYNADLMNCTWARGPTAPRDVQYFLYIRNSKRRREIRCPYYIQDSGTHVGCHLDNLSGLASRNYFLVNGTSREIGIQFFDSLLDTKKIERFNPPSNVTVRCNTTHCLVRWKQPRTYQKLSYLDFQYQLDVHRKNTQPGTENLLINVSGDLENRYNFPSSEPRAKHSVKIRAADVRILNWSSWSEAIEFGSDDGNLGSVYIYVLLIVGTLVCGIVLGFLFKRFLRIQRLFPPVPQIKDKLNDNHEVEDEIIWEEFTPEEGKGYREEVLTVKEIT
# T2: human CD116 D300A (human, UniProt P15509 23-400)
# T2 construct: whole, on cells
# T2 sequence (looked up): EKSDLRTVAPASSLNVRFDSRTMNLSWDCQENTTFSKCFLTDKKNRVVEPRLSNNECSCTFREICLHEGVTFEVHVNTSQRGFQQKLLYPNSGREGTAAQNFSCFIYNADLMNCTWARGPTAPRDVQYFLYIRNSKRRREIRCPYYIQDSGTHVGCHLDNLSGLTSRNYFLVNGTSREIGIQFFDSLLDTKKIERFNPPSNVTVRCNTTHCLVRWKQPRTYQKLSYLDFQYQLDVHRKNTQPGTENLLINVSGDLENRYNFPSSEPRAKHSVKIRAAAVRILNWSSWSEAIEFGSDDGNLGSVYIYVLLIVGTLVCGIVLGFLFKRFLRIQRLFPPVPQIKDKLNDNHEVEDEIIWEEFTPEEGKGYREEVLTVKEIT
# T3: human CD116 F251A (human, UniProt P15509 23-400)
# T3 construct: whole, on cells
# T3 sequence (looked up): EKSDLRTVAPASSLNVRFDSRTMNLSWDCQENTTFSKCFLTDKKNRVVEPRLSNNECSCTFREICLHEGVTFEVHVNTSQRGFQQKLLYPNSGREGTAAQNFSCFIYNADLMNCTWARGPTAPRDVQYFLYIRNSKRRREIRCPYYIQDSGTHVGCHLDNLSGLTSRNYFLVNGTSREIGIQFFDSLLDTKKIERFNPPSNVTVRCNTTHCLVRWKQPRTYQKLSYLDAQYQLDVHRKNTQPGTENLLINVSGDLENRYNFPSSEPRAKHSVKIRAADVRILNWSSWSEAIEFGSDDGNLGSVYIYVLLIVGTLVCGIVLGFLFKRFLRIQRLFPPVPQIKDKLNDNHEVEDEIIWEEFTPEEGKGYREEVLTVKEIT
# T4: human CD116 K213A (human, UniProt P15509 23-400)
# T4 construct: whole, on cells
# T4 sequence (looked up): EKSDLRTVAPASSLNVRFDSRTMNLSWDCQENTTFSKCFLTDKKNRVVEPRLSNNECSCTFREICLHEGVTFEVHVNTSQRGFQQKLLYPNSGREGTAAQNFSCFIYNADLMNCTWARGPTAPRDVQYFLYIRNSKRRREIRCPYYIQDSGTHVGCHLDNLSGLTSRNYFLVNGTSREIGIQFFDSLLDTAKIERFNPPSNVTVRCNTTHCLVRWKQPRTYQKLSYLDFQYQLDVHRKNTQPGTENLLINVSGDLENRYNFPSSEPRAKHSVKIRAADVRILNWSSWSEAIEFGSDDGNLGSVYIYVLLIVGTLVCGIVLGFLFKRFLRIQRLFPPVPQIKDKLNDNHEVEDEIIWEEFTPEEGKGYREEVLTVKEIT
# T5: human CD116 D250A (human, UniProt P15509 23-400)
# T5 construct: whole, on cells
# T5 sequence (looked up): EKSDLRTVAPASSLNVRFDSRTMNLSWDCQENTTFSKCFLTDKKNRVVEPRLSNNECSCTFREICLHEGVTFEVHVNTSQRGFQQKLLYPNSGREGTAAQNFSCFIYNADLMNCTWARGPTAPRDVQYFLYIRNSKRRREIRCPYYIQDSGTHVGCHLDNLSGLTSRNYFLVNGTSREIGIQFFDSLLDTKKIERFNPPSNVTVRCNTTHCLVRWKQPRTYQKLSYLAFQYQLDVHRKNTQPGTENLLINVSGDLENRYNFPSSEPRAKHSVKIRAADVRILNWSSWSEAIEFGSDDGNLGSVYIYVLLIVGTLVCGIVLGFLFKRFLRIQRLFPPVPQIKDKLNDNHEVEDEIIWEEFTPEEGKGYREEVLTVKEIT
# T6: human CD116 R302A (human, UniProt P15509 23-400)
# T6 construct: whole, on cells
# T6 sequence (looked up): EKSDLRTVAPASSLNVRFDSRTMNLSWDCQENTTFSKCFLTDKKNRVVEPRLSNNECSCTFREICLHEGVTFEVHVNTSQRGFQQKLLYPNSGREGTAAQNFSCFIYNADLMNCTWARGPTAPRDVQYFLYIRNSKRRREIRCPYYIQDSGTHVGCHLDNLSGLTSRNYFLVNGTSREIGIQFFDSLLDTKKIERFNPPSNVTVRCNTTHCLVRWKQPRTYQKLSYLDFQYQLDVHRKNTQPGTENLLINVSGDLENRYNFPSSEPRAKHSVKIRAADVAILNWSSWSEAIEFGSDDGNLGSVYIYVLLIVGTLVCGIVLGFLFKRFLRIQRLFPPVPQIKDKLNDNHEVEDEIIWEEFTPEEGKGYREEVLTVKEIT
# B1: anti-CD116 antibody 116-408, Fab (Fab, V domains shown)
# VH: EVQLVQSGAEVKKPGASVKVSCKVSGYTLTDLSMHWVRQAPGKGLEWMGGFDPEDGERIYAQKFQGRVTMTEDTSTDTAYMELSSLRSEDTAVYYCATGLFYYYYGMDVWGQGTMVTVSS
# VL: not shown
# Legend:
# Assay in all cases: flow cytometry, Fab 0.25 µg/mL on HEK-293T cells expressing the mutant
# [1] = molecular target: T1, human CD116 T187A
# [2] = molecular target: T2, human CD116 D300A
# [3] = molecular target: T3, human CD116 F251A
# [4] = molecular target: T4, human CD116 K213A
# [5] = molecular target: T5, human CD116 D250A
# [6] = molecular target: T6, human CD116 R302A
binder,measurement,setting,value
B1,Binding Reactivity (% WT),[1],16.2 % WT
same,Binding Reactivity (% WT),[2],84.8 % WT
same,Binding Reactivity (% WT),[3],99.3 % WT
same,Binding Reactivity (% WT),[4],98.4 % WT
same,Binding Reactivity (% WT),[5],95.8 % WT
same,Binding Reactivity (% WT),[6],93.8 % WT
